Experimental data published in the supplement of paper PMC10065799, “High-throughput profiling of sequence recognition by tyrosine kinases and SH2 domains using bacterial peptide display” (eLife, 2023).

Assays:
[1] = tested on: AncSZ; experiment: phosphorylation enrichment, bacterial display (enrichment ratio); higher = better substrate or ligand; peptides without Tyr show the background
[2] = target: EPHB1 (UniProt P54762); experiment: as above
[3] = target: EPHB2 (UniProt P29323); experiment: as above
Sequence of EPHB2 (P29323 whole entry, looked up): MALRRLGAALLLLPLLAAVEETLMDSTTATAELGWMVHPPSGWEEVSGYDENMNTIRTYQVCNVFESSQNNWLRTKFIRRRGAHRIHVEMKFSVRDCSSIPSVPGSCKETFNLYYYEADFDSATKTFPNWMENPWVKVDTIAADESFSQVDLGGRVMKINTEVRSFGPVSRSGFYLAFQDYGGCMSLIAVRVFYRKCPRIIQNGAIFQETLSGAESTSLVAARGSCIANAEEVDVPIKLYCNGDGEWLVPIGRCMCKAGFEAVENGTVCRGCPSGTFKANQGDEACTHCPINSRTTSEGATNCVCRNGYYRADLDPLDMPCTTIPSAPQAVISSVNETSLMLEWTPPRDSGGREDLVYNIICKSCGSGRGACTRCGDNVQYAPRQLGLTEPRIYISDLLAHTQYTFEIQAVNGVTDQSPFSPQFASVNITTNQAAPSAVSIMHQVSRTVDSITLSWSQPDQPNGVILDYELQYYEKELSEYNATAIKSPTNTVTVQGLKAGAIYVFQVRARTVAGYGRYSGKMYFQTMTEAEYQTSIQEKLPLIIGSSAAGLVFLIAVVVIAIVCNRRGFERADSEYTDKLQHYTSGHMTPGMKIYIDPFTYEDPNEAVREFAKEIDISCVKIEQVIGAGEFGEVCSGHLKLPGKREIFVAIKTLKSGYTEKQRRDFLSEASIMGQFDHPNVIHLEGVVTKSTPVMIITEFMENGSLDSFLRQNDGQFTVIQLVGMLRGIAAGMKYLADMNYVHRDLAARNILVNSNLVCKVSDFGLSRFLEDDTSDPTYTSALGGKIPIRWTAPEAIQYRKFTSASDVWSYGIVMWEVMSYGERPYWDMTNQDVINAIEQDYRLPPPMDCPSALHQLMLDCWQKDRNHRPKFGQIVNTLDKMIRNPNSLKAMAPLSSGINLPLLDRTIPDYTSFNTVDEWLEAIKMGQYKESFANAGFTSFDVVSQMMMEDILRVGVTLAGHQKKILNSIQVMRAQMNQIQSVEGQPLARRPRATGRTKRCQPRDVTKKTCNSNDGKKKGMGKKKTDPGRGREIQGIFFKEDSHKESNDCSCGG

[4] = target: FGFR1 (UniProt P11362); experiment: as above
Sequence of FGFR1 (P11362 whole entry, looked up): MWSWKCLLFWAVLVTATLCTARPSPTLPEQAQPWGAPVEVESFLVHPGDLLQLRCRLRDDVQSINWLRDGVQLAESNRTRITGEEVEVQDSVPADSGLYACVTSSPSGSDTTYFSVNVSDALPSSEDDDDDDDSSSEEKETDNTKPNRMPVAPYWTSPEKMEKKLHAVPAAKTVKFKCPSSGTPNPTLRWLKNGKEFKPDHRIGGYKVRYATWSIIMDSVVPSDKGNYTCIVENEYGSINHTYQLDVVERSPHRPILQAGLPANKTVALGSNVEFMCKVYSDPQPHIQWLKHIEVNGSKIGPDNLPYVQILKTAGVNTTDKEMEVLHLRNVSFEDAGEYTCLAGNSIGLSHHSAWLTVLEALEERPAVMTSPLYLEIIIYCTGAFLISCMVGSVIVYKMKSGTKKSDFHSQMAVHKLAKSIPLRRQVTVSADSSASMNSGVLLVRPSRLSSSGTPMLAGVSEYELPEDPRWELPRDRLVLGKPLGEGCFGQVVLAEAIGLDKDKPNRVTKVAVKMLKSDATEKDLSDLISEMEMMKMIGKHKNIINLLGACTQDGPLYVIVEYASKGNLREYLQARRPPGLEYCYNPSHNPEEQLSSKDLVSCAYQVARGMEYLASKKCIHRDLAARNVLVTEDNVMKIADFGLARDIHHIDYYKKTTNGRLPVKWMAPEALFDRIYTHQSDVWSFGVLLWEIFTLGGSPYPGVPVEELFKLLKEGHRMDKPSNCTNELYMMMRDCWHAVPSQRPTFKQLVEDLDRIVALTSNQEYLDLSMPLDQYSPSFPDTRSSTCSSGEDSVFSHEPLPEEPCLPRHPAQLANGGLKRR

[5] = target: FGFR3 (UniProt P22607); experiment: as above
[6] = tested on: Fer (mouse); experiment: as above
[7] = target: Fes (UniProt P07332); experiment: as above
Sequence of Fes (P07332 whole entry, looked up): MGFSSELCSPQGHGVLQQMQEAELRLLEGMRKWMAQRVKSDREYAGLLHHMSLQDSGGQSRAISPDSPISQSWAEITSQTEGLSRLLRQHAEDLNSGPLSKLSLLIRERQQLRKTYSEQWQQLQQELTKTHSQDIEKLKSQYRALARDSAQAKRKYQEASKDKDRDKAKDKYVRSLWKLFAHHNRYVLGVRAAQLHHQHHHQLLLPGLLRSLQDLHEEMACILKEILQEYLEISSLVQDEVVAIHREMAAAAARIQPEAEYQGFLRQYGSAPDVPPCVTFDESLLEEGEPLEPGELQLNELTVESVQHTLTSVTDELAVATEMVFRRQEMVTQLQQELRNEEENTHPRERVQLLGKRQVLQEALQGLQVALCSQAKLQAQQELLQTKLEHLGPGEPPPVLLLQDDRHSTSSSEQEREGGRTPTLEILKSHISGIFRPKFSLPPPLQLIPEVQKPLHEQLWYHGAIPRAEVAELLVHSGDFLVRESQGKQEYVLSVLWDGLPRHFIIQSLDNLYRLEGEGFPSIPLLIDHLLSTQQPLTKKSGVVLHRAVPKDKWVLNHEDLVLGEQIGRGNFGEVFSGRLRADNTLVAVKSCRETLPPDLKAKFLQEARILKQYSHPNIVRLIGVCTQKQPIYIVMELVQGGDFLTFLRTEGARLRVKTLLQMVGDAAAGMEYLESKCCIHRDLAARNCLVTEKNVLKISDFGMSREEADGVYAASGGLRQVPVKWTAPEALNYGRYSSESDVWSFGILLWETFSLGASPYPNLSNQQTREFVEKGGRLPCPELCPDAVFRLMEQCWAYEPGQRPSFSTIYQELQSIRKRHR

[8] = target: Fyn (UniProt P06241); experiment: as above
Sequence of Fyn (P06241 whole entry, looked up): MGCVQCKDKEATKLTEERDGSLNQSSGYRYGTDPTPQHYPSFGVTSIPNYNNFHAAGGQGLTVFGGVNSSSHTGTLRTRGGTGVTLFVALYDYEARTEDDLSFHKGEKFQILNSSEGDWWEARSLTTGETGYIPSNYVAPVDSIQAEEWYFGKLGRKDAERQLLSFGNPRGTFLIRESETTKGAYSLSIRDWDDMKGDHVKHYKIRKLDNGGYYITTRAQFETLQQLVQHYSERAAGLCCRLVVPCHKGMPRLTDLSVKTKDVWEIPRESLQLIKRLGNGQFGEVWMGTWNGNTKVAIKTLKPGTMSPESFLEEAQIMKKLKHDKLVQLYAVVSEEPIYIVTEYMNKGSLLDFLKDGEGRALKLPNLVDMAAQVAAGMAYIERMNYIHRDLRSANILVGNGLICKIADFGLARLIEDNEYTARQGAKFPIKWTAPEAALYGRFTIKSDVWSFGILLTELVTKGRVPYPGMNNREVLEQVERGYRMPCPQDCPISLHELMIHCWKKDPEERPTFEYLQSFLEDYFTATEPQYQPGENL

[9] = target: Hck (UniProt P08631); experiment: as above
Sequence of Hck (P08631 whole entry, looked up): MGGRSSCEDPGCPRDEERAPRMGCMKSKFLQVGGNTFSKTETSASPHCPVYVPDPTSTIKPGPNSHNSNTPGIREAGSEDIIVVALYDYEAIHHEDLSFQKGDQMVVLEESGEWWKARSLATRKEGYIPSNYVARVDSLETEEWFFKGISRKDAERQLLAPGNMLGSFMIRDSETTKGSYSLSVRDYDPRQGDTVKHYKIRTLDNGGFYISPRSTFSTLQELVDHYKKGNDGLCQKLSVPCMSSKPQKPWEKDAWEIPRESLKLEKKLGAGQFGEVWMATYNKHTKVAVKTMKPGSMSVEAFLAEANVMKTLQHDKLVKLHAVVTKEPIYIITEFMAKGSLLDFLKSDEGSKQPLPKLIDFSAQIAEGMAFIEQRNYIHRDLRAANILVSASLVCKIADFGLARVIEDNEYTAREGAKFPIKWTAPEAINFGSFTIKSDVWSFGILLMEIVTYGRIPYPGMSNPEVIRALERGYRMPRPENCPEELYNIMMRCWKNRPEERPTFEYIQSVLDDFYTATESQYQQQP

[10] = target: Jak2 (UniProt O60674); experiment: as above
Sequence of Jak2 (O60674 whole entry, looked up): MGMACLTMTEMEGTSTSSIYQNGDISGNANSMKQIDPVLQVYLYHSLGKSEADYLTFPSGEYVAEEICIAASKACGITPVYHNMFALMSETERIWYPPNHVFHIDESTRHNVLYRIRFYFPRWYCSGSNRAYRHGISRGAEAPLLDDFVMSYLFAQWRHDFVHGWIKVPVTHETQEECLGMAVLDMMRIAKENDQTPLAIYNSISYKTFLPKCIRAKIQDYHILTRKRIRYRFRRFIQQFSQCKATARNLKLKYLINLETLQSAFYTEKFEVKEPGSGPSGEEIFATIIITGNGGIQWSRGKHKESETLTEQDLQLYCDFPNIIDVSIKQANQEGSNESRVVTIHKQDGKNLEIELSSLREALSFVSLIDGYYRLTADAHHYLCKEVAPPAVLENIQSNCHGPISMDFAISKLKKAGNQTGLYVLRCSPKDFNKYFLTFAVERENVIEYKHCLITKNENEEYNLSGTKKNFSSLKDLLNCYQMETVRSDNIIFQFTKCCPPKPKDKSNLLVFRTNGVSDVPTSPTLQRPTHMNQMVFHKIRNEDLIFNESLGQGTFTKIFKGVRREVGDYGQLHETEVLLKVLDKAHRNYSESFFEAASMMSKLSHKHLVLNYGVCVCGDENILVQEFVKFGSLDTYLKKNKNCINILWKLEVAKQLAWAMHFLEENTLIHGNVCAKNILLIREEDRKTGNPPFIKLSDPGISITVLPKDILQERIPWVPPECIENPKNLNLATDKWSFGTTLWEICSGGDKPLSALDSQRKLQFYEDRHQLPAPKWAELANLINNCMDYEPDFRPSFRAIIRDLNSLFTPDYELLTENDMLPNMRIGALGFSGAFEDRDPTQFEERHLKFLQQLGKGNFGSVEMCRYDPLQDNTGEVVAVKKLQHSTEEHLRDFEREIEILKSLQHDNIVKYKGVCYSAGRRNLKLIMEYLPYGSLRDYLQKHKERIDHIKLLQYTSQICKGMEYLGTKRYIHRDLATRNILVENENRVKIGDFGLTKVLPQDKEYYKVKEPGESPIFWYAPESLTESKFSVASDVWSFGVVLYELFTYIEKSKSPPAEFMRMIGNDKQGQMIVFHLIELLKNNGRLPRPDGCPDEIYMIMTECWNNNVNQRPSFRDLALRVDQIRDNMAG

[11] = target: MERTK (UniProt Q12866); experiment: as above
[12] = tested on: c-Abl (mouse); experiment: as above
[13] = tested on: c-Src; experiment: as above
[14] = target: Grb2 SH2 (UniProt P62993); experiment: SH2 binding enrichment of the phosphorylated peptide, bacterial display (enrichment ratio); higher = better substrate or ligand; peptides without Tyr show the background
[15] = target: SHP2-C SH2; experiment: as above
[16] = target: c-Src SH2; experiment: as above
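Throughout, for SH2 binding enrichment of the phosphorylated peptide, bacterial display: peptide library displayed on the E. coli surface as eCPX fusions, selected cells deep-sequenced, score is each peptide's frequency after selection divided by its frequency in the input.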
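Throughout, for phosphorylation enrichment, bacterial display: 11-residue human phosphosite peptides and single-mutation variants displayed on the E. coli surface, counted by deep sequencing, each peptide's frequency after selection divided by its frequency in the unselected input library; frequency after pTyr selection over input frequency; kinase dosed for 20-30% of maximal phosphorylation in three min.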

Sequence | SH2 binding enrichment [14] | SH2 binding enrichment [15] | SH2 binding enrichment [16] | phosphorylation enrichment [1] | phosphorylation enrichment [2] | phosphorylation enrichment [3] | phosphorylation enrichment [4] | phosphorylation enrichment [5] | phosphorylation enrichment [6] | phosphorylation enrichment [7] | phosphorylation enrichment [8] | phosphorylation enrichment [9] | phosphorylation enrichment [10] | phosphorylation enrichment [11] | phosphorylation enrichment [12] | phosphorylation enrichment [13]
NLSVHYDSSLK [ABCC8_Y1353_R1352H] | 0.793 | 0.547 | 0.509 | 0.952 | 0.579 | 0.82 | 0.522 | 0.603 | 0.437 | 0.922 | 0.424 | 0.453 | 0.612 | 0.339 | 0.548 | 0.342
IYLADCRIMEG [ALOX12B_Y318_Y318C] | 0.821 | 0.671 | 0.45 | 1.27 | 0.693 | 0.932 | 0.648 | 0.842 | 0.65 | 1.36 | 0.684 | 0.691 | 0.95 | 0.556 | 0.869 | 0.559
NEANKYQISVN [FGB_Y368] | 0.763 | 0.717 | 0.481 | 0.691 | 0.39 | 0.411 | 0.372 | 0.459 | 0.369 | 0.816 | 0.435 | 0.391 | 0.654 | 0.371 | 0.592 | 0.425
VNFGAYINNFK [GLB1_Y488_D491N_YF] | 0.834 | 0.803 | 0.589 | 1.03 | 0.566 | 0.635 | 0.535 | 0.689 | 0.579 | 0.912 | 0.463 | 0.523 | 0.662 | 0.362 | 0.535 | 0.391
KGEDFYCVTCH [FHL1_Y149] | 1.19 | 0.842 | 0.962 | 1.09 | 0.696 | 0.569 | 0.579 | 0.775 | 0.504 | 1.12 | 0.797 | 0.801 | 0.933 | 0.597 | 0.675 | 0.613
YFRDGCMPRQY [GSS_Y270_Y270C] | 1.08 | 0.637 | 0.499 | 0.938 | 0.602 | 0.552 | 0.6 | 0.883 | 0.505 | 0.948 | 0.43 | 0.438 | 0.833 | 0.406 | 0.72 | 0.364
TLCLCYKEIEE [ATP8B1_Y658] | 0.921 | 0.937 | 1.29 | 1.63 | 1.05 | 0.825 | 0.592 | 1.05 | 0.704 | 1.96 | 0.521 | 0.733 | 1.36 | 0.618 | 0.886 | 0.624
GFPVHYTGVSN [DNMT3B_Y815_D817G] | 0.878 | 2.09 | 1.06 | 0.545 | 0.38 | 0.424 | 0.392 | 0.413 | 0.453 | 0.598 | 0.359 | 0.438 | 0.424 | 0.361 | 0.608 | 0.358
VECHLYFTQPK [AKR1D1_Y199_P198L] | 0.801 | 0.867 | 0.374 | 1.42 | 0.717 | 0.663 | 0.493 | 0.946 | 0.645 | 1.33 | 0.588 | 0.631 | 1.58 | 0.556 | 1.02 | 0.91
QGLRLYRAHLA [BTK_Y617_P619A] | 1.38 | 1.61 | 1.21 | 1.43 | 0.587 | 0.602 | 0.521 | 0.677 | 0.467 | 0.978 | 0.576 | 0.497 | 0.878 | 0.582 | 0.854 | 0.523
DRVALYIAREG [AACS_Y117] | 0.896 | 0.928 | 0.487 | 0.957 | 0.671 | 0.534 | 0.519 | 0.717 | 0.484 | 1.14 | 0.468 | 0.569 | 1.02 | 0.395 | 0.731 | 0.432
KRTFEYEADKN [DENND2B_Y396] | 0.747 | 0.702 | 0.576 | 0.947 | 0.545 | 0.526 | 0.507 | 0.576 | 0.496 | 1.03 | 0.471 | 0.483 | 0.781 | 0.403 | 0.61 | 0.39
LILENYGADID [DNAH5_Y596] | 0.939 | 0.685 | 0.669 | 1.84 | 1.11 | 0.856 | 0.935 | 1.32 | 0.809 | 1.4 | 0.883 | 0.889 | 1.25 | 0.574 | 0.841 | 0.56
AVEDQYYCVDC [FHL1_Y207] | 0.877 | 0.748 | 1.08 | 2.07 | 0.53 | 0.598 | 5.7 | 4.65 | 0.684 | 1.3 | 0.853 | 0.796 | 1.39 | 0.72 | 0.786 | 1.97
IGEGTYGTVFK [CDK5_Y15] | 0.699 | 0.703 | 0.434 | 0.707 | 0.989 | 2.08 | 0.515 | 0.58 | 1.41 | 0.793 | 10.4 | 9.06 | 0.788 | 0.825 | 0.676 | 6.34
CHKCTYKVTGL | 1.46 | 1.46 | 1.34 | 0.622 | 0.444 | 0.462 | 0.488 | 0.693 | 0.419 | 0.682 | 0.49 | 0.472 | 0.556 | 0.453 | 0.523 | 0.504
CKSIHYDLVFL [COL22A1_Y37_V35I] | 0.736 | 0.573 | 1.06 | 1.49 | 0.751 | 0.755 | 0.651 | 0.895 | 8.93 | 1.55 | 0.574 | 0.686 | 1.36 | 1.51 | 0.936 | 0.562
KQQEIYQEVTQ [CD209_Y239_L242V] | 0.929 | 0.785 | 0.513 | 1.26 | 7.2 | 4.5 | 2.56 | 1.96 | 7.32 | 0.942 | 5.17 | 5.41 | 0.765 | 4.06 | 1.94 | 5.15

Second part, led by results:

SH2 binding enrichment [14] | SH2 binding enrichment [15] | SH2 binding enrichment [16] | Sequence | phosphorylation enrichment [1] | phosphorylation enrichment [2] | phosphorylation enrichment [3] | phosphorylation enrichment [4] | phosphorylation enrichment [5] | phosphorylation enrichment [6] | phosphorylation enrichment [7] | phosphorylation enrichment [8] | phosphorylation enrichment [9] | phosphorylation enrichment [10] | phosphorylation enrichment [11] | phosphorylation enrichment [12] | phosphorylation enrichment [13]
0.938 | 0.596 | 0.668 | DLREKYMDCGG [HAP1_Y440] | 0.919 | 0.716 | 0.625 | 0.507 | 0.726 | 0.586 | 1.1 | 0.499 | 0.55 | 0.913 | 0.442 | 0.738 | 0.389
0.823 | 0.716 | 0.794 | QTSSNYDDAMQ [ZNF281_Y531_I527T] | 1.06 | 0.825 | 1.14 | 0.86 | 0.975 | 0.741 | 1.02 | 0.756 | 0.57 | 0.884 | 0.58 | 0.476 | 0.44
1.47 | 0.881 | 0.877 | LCRFGYANTSE [SI_Y1233_YF] | 0.756 | 0.454 | 0.529 | 0.455 | 0.581 | 0.381 | 0.893 | 0.419 | 0.422 | 0.706 | 0.423 | 0.625 | 0.405
0.708 | 0.834 | 1 | VARAVYQAVLS [SMG1_Y549_H546R] | 0.999 | 0.526 | 0.567 | 0.468 | 0.585 | 1.33 | 0.97 | 1.07 | 2.26 | 0.722 | 0.758 | 0.75 | 1.36
0.831 | 0.675 | 0.569 | KPLMPSMRFSR [SMARCE1_Y73_Y73S_YF] | 0.828 | 0.392 | 0.399 | 0.396 | 0.463 | 0.35 | 0.876 | 0.424 | 0.413 | 0.685 | 0.459 | 0.737 | 0.543
0.97 | 1.14 | 0.438 | GLDGSYLLRYS [SH2D1A_Y29_D33Y] | 0.685 | 0.436 | 0.455 | 0.478 | 0.57 | 0.415 | 0.979 | 0.485 | 0.512 | 0.665 | 0.434 | 0.542 | 0.441
0.829 | 0.688 | 0.859 | MSFDRYMAICH [OR2A5_Y123_YF] | 0.897 | 0.868 | 0.669 | 0.567 | 0.68 | 0.557 | 1.08 | 0.494 | 0.527 | 0.878 | 0.498 | 0.69 | 0.497
0.546 | 0.586 | 0.336 | STEVIYLPRRK [STK11_Y36_Q37L] | 0.624 | 0.419 | 0.588 | 0.52 | 0.53 | 0.526 | 0.589 | 0.7 | 0.515 | 0.568 | 0.618 | 0.466 | 0.591
0.746 | 0.49 | 0.413 | SLLTDDSPQLQ [OTC_Y345_Y345D] | 1.14 | 0.928 | 0.548 | 0.491 | 0.764 | 0.444 | 1.29 | 0.407 | 0.481 | 1.22 | 0.538 | 0.923 | 0.453
0.931 | 1.89 | 0.495 | GGEEFYVHYVG [KAT8_Y90_R86G] | 1.32 | 0.627 | 0.532 | 0.681 | 0.849 | 0.532 | 1.21 | 0.547 | 0.488 | 1.22 | 0.455 | 0.741 | 0.565
1.2 | 0.638 | 1.26 | RSYSPYDYQPC [TNS1_Y796] | 1.52 | 1.81 | 2.31 | 1.27 | 1.06 | 0.894 | 0.912 | 3.66 | 1.29 | 0.789 | 3.28 | 0.668 | 3.15
0.939 | 1.67 | 0.783 | HDKEYYSVHNK [MET_Y1235_Y1230H] | 1.24 | 0.714 | 0.472 | 2.8 | 1.88 | 0.865 | 0.729 | 0.739 | 0.911 | 0.75 | 0.503 | 0.706 | 0.506
0.905 | 0.392 | 0.697 | HLELNYKEDEF [MME_Y502_Y497H_YF] | 0.993 | 0.594 | 0.504 | 1.08 | 1.48 | 0.64 | 0.967 | 0.557 | 0.565 | 0.903 | 0.589 | 0.749 | 0.43
0.82 | 0.617 | 0.497 | EEQKKYSNAMK [SCN5A_Y1494_Y1495S] | 0.611 | 0.429 | 0.539 | 0.456 | 0.529 | 0.353 | 0.723 | 0.377 | 0.37 | 0.56 | 0.327 | 0.772 | 0.404
0.861 | 0.747 | 0.45 | NPPGMHPVTGP [LPP_Y346_Y346H] | 0.534 | 0.299 | 0.332 | 0.361 | 0.331 | 0.286 | 0.516 | 0.353 | 0.28 | 0.474 | 0.35 | 0.997 | 0.358
